Laboratory results as given in article doi:10.1101/688531.
Several values for one entry are separate records, joined by “and”; a condition that tells them apart may be missing. Identical values can stand only once.

Target: synthetic horse SLN (horse)
Experiment: SDS-PAGE with immunoblot

stoichiometry N: 2 and 3
Substance: synthetic horse SLN (peptide)
